In patent US20210205413A1 (Nektar Therapeutics, priority 2018, published 2021):
“Also recorded” adds a separate entry of the source.

Tests used:
Tregs = experiment: Single-dose PK/PD study in mice: Tregs in blood and spleen by flow cytometry; type: in vivo, C57BL/6 mice
Text: (§1) Following administration, blood and spleen samples are collected at days 1-7 and day 10 post administration. More particularly, at each time point, blood and spleen samples are collected; samples are pooled and assessed for pharmacodynamic analysis of drug action on lymphocyte cell populations by flow cytometry (see e.g. Example 5), expressed as a fold change relative to vehicle control. In addition to changes in cell numbers, functional markers and markers of activity are quantified. Finally, plasma drug concentration is also assessed.

CD4 T cells, CD8 T cells = experiment: Single-dose PK/PD study in mice: CD4 and CD8 T cells in blood; type: in vivo, C57BL/6 mice; details: single SC 0.3 mg/kg
Text: as §1

[1] = test system: Balb/c mice (KLH DTH model); experiment: Mouse KLH delayed-type hypersensitivity (DTH) efficacy model, ear swelling; type: in vivo
Protocol: Mice are sensitized subcutaneously in their dorsal area with a 100 μl subcutaneous injection containing 100 μg keyhole limpit hemocyanin (KLH) in an emulsion containing Complete Freund's Adjuvant (CFA) and Incomplete Freund's Adjuvant, at a ratio of 1:1:1 respectively. Five days later, baseline ear thickness is measured prior to challenge with 10 μg of KLH intradermally in the left ear, with the right ear remaining untreated. Ear thickness measurements are measured with calipers at 24, 48, 72 and 96 hours post KLH challenge in all groups. […] A positive control consisting of cyclosporin (10 mg/kg, single dose) was administered on day 0.

[2] = Single dose pharmacokinetics in mice; type: in vivo, C57BL/6 Mice
[3] = Phase I single ascending dose study in healthy volunteers: safety and tolerability; type: in vivo, human; details: single SC doses
Protocol: A double-blind, randomized, placebo-controlled study is conducted to evaluate the safety, tolerability, pharmacokinetics, and pharmacodynamics of single ascending low sub-cutaneous doses of an RUR20kD-IL-2 composition (RUR20kD-IL-2) in healthy volunteers. […] Twelve subjects are randomized to each dose cohort, nine of whom received a single subcutaneous dose of RUR20kD-IL-2 while three received placebo. […] The drug product is supplied in single-use glass vials and stored at 2-8° C. […] Placebo is a commercially available 0.9% sodium chloride solution. A starting dose of 0.3 μg/kg is chosen using the minimally anticipated biological effect level (MABEL) approach and is supported by the no observed adverse effect level (NOAEL) in the most sensitive species from nonclinical toxicology studies.
The primary objective of the study is to evaluate the safety and tolerability of RUR20kD-IL-2 administered as a single subcutaneous dose. […] In a first phase of the study, immune markers are tested pre-dose up to 20 hours post-dose. Specifically, Tregs, CD4^+-T cells, CD8^+-T cells, natural killer (NK) cells, cytokines, soluble CD25, and RNA are tested in RUR20kD-IL-2- and placebo-receiving cohorts. In subsequent phases, the same immune markers are also tested at 4-, 5-, 6-, 7-, 8-, 10-, 12-, 15-, 18-, 20-, 25-, 30-, 40, and 50-days post-dose.

[4] = Phase I ascending multiple-dose study in patients with SLE: pharmacokinetics; type: in vivo, human; details: Multi-Dose Study
Protocol: The effects on SLE disease activity are also evaluated. Twelve SLE patients with minimal to moderate disease activity are randomized to each of four dose cohorts, nine of whom received multiple 1.0 mg/mL aqueous solution sub-cutaneous doses of RUR-IL-2-20 kD, while three received placebo. […] In Cohort 1, a starting dose of 3.0 μg/kg is administered three times at two-week intervals (Days 1, 15, and 29). This starting dose is based on the favorable safety and PD profile of single sub-cutaneous doses of RUR20kD-IL-2 previously determined in the study described above. The subsequent dose levels in Cohorts 2, 3, and 4, respectively, were up to two-fold that of the previous dose cohort. Patients in Cohorts 1-3 received three doses of study drug at two-week intervals over a total of four weeks. Doses to be evaluated over the course of the study range from 3.0 μg/kg to 24 μg/kg. […] After receiving the final dose of RUR20kD-IL-2 or placebo, patients are followed for an additional fifty days to evaluate safety, PK, PD, and preliminary efficacy. Eight of twelve subjects in each cohort are evaluated two weeks after the third dose of the final patient by the Safety Review Committee for possible safety issues. In addition, all patients in Cohort 4 are evaluated by the Safety Review Committee twice: (1) two weeks after the first eight subjects receive their third dose and (2) two weeks after all subjects receive all doses of study drug. Immunologic changes, including Tregs, CD4^+-T cells, CD8^+-T cells, and NK cell responses, cytokine levels, and available PK data, in addition to safety findings, are used to determine dose levels. The primary objective of the study is to evaluate the safety and tolerability of RUR20kD-IL-2 administered as multiple ascending subcutaneous doses to patients with SLE. […] Results depicting preliminary PK data from the ascending multi-dose study are compared with data from the single subcutaneous study in the below Table 15: […]

[5] = SC q3d, AUC0-96h of change in ear thickness
[6] = C57BL/6 mice, single SC 0.03 mg/kg, plasma
[7] = C57BL/6 mice, single SC 0.1 mg/kg, plasma
[8] = C57BL/6 mice, single SC 0.3 mg/kg, plasma

In the case of “(1,3-bis(methoxypoly(ethylene glycol)10kDcarbamoyl)-2-propanoxy)-4-butanamide)interleukin-2) [RUR20kD-IL-2]”, the “time of peak increase in CD4+ Treg cell numbers” value (Tregs; blood and spleen, single SC dose 0.03-0.3 mg/kg) is reported as “four days following administration; also recorded: four days after administration”, the “duration of sustained Treg mobilization” value (Tregs; blood and spleen, single administration) is reported as 7 to 10 days and the “time until Treg levels return to baseline” value (Tregs; single SC 0.3 mg/kg) is reported as 7 to 10 days. For the same substance, the “day ICOS expression returns to baseline” value (Tregs; single SC dose) was no more than 7 days, the “day of peak ICOS expression on Treg” value (Tregs; single SC dose) was 3 days and the “percentage of proliferating (Ki67) Treg, duration” value (Tregs; single SC dose) was “sustained through day 6”. The “time of maximum of Treg activation markers (CD25 and Foxp3 MFI)” value (Tregs; single SC dose, highest dose 0.3 mg/kg, 0.3 mg/kg) was “in the first two days following administration; also recorded: within the first two days following administration”, the “changes to CD4 T cells” value (CD4 T cells, CD8 T cells) was “modest” and the “changes to CD8 T cells” value (CD4 T cells, CD8 T cells) was “slight decreases”. For the same substance, the “ear swelling relative to vehicle control” value ([1]; SC 0.003-0.3 mg/kg every three days) was “significant dose-dependent decreases in ear swelling”, the “dose achieving maximal effect” value [1, 5] was 0.3 mg/kg and the minimally effective dose [1, 5] was 0.01 mg/kg. The AUCinf [2, 6] was 22900 ng·h/mL, the AUClast [2, 6] was 21500 ng·h/mL and the Cmax [2, 6] was 333 ng/mL. It also gave a Half-life [2, 6] of 53.8 h, an MRTinf [2, 6] of 83 h and a tmax [2, 6] of 7.92 h. For the same substance, the AUCinf [2, 7] was 102000 ng·h/mL, the AUClast [2, 7] was 97400 ng·h/mL and the Cmax [2, 7] was 1140 ng/mL. For the same substance, the Half-life [2, 7] was 53.8 h, the MRTinf [2, 7] was 81.4 h and the tmax [2, 7] was 7.92 h. For the same substance, the AUCinf [2, 8] was 245000 ng·h/mL, the AUClast [2, 8] was 238000 ng·h/mL and the Cmax [2, 8] was 3330 ng/mL. For the same substance, the Half-life [2, 8] was 44.4 h, the MRTinf [2, 8] was 71.5 h and the tmax [2, 8] was 24 h. For the same substance, the tmax ([2]; mice, SC, range over doses) was 7.92 to 24 h, the half-lives ([2]; mice, range over doses) was 1.85 to 2.24 days and the adverse events [3] was “primarily limited to mild or moderate (Grade 1 or 2) injection site reactions; also recorded: primarily limited to mild (grade 1) injection site reactions”. For the same substance, the anti-drug antibodies [3] was “no elicitation of anti-drug antibodies; also recorded: none have been detected”, the “dose-limiting toxicities, serious adverse events, deaths, clinically significant abnormalities” value [3] was “No dose-limiting toxicities (DLTs), serious adverse events (SAEs), deaths, or clinically significant abnormalities; also recorded: no dose-limiting toxicities, deaths, or adverse events leading to study discontinuation; also recorded: no dose-limiting toxicities, serious adverse events, deaths, or clinically significant abnormalities in vital signs, electrocardiograms, or laboratory test values” and the AUC0-14 d ([4]; 3.0 μg/kg, Median (n = 9)) was 185 ng·days/mL. For the same substance, the Cmax ([4]; 3.0 μg/kg, Median (n = 9)) was 18 ng/mL, the tmax ([4]; 3.0 μg/kg, Median (n = 9)) was 140 h and the AUC0-14 d ([4]; 3.0 μg/kg, max) was 291 ng·days/mL. It also gave a Cmax ([4]; 3.0 μg/kg, max) of 26 ng/mL, a tmax ([4]; 3.0 μg/kg, max) of 336 h and an AUC0-14 d ([4]; 3.0 μg/kg, min) of 113 ng·days/mL. For the same substance, the Cmax ([4]; 3.0 μg/kg, min) was 15 ng/mL, the tmax ([4]; 3.0 μg/kg, min) was 48 h and the Cmax ([4]; 6.0 μg/kg, Median (n = 7)) was 14 ng/mL. For the same substance, the tmax ([4]; 6.0 μg/kg, Median (n = 7)) was 140 h, the AUC0-14 d ([4]; 6.0 μg/kg, max) was 206 ng·days/mL and the Cmax ([4]; 6.0 μg/kg, max) was 22 ng/mL. The tmax ([4]; 6.0 μg/kg, max) was 336 h, the AUC0-14 d ([4]; 6.0 μg/kg, min) was 43 ng·days/mL and the Cmax ([4]; 6.0 μg/kg, min) was 5 ng/mL. For the same substance, the tmax ([4]; 6.0 μg/kg, min) was 96 h.
